Data taken from patent US20240218079A1 (ASTRIA THERAPEUTICS, published 2024).
Like-named read-outs stand apart in the source and are kept apart here.

B1: MAb1 (antibody, V domains shown)
VH: QVQLQQSGAELVKPGASVKISCKASGYAFSSYWMNWVKQRPGEGLEWIGQIYPGDDDTNYNGKFKGKATLTVDKSSTTAYMQLSSLTSEDSAVYFCAGSLMVTTGAPFDYWGQGTTLTVSS
VL: DIVMTQSHKFMSTSVGDRVSITCKASQDVGIAVAWYQQKPGQSPKFLIYWASTRHTGVPDRFTGSGSGTDFTLTIRNVQSEDLSDYFCQQYRSYPLTFGSGTKLELK
B2: MAb4-YTE (antibody, human IgG1, kappa)
heavy: QVQLVQSGAEVKKPGSSVKVSCKASGYAFSSYWMNWVRQAPGQGLEWIGQIYPGDDDTNYNAKFQGRVTITVDKSTTTAYMELSSLRSEDTAVYFCAGSLMVTTGAPFDYWGQGTTVTVSSASTKGPSVFPLAPSSKSTSGGTAALGCLVKDYFPEPVTVSWNSGALTSGVHTFPAVLQSSGLYSLSSVVTVPSSSLGTQTYICNVNHKPSNTKVDKRVEPKSCDKTHTCPPCPAPELLGGPSVFLFPPKPKDTLYITREPEVTCVVVDVSHEDPEVKFNWYVDGVEVHNAKTKPREEQYNSTYRVVSVLTVLHQDWLNGKEYKCKVSNKALPAPIEKTISKAKGQPREPQVYTLPPSREEMTKNQVSLTCLVKGFYPSDIAVEWESNGQPENNYKTTPPVLDSDGSFFLYSKLTVDKSRWQQGNVFSCSVMHEALHNHYTQKSLSLSPG
light: DIQMTQSPSSLSASVGDRVTITCKASQDVGIAVAWYQQKPGKAPKFLIYYASHRGWGVPDRFSGSGSGTDFTLTISSLQPEDFATYFCQQYRSYPLTFGQGTKLEIKRTVAAPSVFIFPPSDEQLKSGTASVVCLLNNFYPREAKVQWKVDNALQSGNSQESVTEQDSKDSTYSLSSTLTLSKADYEKHKVYACEVTHQGLSSPVTKSFNRGEC
notes: also called Mab-YTE
B3: MAb4 (antibody, human IgG1, kappa)
heavy: not shown
light: DIQMTQSPSSLSASVGDRVTITCKASQDVGIAVAWYQQKPGKAPKFLIYYASHRGWGVPDRFSGSGSGTDFTLTISSLQPEDFATYFCQQYRSYPLTFGQGTKLEIKRTVAAPSVFIFPPSDEQLKSGTASVVCLLNNFYPREAKVQWKVDNALQSGNSQESVTEQDSKDSTYSLSSTLTLSKADYEKHKVYACEVTHQGLSSPVTKSFNRGEC
notes: Full length human IgG1 kappa; also called unmodified MAb4; parental MAb4
B4: MAb4-LS (antibody, human IgG1, kappa)
heavy: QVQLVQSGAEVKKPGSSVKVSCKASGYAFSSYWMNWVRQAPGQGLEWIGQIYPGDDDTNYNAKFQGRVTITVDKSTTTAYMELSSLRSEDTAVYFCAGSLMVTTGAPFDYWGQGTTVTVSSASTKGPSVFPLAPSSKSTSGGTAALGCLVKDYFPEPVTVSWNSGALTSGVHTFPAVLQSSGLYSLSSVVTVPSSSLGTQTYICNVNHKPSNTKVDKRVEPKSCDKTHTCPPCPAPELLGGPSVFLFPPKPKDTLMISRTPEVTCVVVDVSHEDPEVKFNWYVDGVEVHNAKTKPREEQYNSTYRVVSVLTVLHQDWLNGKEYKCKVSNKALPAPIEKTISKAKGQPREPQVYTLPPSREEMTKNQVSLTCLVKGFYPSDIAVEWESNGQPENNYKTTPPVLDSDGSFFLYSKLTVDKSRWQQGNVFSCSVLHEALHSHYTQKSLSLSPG
light: DIQMTQSPSSLSASVGDRVTITCKASQDVGIAVAWYQQKPGKAPKFLIYYASHRGWGVPDRFSGSGSGTDFTLTISSLQPEDFATYFCQQYRSYPLTFGQGTKLEIKRTVAAPSVFIFPPSDEQLKSGTASVVCLLNNFYPREAKVQWKVDNALQSGNSQESVTEQDSKDSTYSLSSTLTLSKADYEKHKVYACEVTHQGLSSPVTKSFNRGEC
notes: Human IgG1 kappa
B5: DX-2930 (antibody)
chain 1: not shown
chain 2: DIQMTQSPSTLSASVGDRVTITCRASQSISSWLAWYQQKPGKAPKLLIYKASTLESGVPSRFSGSGSGTEFTLTISSLQPDDFATYYCQQYNTYWTFGQGTKVEIKRTVAAPSVFIFPPSDEQLKSGTASVVCLLNNFYPREAKVQWKVDNALQSGNSQESVTEQDSKDSTYSLSSTLTLSKADYEKHKVYACEVTHQGLSSPVTKSFNRGEC

How the values were obtained:
[1] = target: T1, human plasma kallikrein (human, UniProt P03952 20-390; P03952 391-638); assay: cell-based or functional assay
T1 sequence (P03952 20-390 S143N limits assumed, chain 1 of 2): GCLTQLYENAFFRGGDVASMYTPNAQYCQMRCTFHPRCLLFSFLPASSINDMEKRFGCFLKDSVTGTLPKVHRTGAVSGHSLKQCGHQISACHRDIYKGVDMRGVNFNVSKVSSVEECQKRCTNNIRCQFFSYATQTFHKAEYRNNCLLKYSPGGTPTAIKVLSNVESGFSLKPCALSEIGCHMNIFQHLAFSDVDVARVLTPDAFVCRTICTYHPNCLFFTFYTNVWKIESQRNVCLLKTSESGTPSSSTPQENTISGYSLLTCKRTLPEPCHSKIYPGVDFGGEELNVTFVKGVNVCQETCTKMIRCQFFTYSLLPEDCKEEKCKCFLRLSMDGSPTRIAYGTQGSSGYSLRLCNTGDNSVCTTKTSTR
T1 sequence (P03952 391-638 limits assumed, chain 2 of 2): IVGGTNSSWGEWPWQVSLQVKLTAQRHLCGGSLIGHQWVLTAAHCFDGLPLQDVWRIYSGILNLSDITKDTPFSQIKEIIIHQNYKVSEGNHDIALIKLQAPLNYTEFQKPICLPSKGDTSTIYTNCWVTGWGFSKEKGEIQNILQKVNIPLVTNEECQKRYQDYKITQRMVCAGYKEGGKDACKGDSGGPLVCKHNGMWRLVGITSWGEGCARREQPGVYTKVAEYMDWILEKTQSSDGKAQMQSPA

[2] = target: T1, human plasma kallikrein; assay: cell-based or functional assay; remark: listed apart in the source
[3] = target: T1, human plasma kallikrein; assay: cell-based or functional assay; remark: listed apart in the source
[4] = target: T1, human plasma kallikrein; assay: SPR, pH 7.4, 37° C.
[5] = target: cynomolgus monkey plasma kallikrein (cynomolgus monkey, UniProt P03952 20-638 (human entry), limits assumed); assay: cell-based or functional assay
Sequence of cynomolgus monkey plasma kallikrein (P03952 other isoform, or with tags, fused parts or gaps limits assumed): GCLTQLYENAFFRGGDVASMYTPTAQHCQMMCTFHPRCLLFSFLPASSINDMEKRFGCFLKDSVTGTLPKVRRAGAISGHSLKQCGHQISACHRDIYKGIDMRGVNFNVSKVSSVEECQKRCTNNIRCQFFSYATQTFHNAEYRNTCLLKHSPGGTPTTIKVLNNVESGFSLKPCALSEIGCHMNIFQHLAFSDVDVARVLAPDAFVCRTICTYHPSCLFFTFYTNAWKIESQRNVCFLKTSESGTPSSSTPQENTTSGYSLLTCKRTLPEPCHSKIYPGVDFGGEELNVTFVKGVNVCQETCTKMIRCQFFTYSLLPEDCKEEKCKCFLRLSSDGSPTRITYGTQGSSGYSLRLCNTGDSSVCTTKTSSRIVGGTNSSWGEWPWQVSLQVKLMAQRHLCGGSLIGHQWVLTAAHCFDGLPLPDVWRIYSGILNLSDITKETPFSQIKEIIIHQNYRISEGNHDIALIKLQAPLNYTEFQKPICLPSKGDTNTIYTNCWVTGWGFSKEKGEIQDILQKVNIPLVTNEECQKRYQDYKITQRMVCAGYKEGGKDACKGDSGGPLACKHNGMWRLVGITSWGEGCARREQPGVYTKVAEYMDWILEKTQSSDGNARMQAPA

[6] = target: rabbit plasma kallikrein (rabbit); assay: cell-based or functional assay
Sequence of rabbit plasma kallikrein (rabbit) (chain, as listed by the source limits assumed): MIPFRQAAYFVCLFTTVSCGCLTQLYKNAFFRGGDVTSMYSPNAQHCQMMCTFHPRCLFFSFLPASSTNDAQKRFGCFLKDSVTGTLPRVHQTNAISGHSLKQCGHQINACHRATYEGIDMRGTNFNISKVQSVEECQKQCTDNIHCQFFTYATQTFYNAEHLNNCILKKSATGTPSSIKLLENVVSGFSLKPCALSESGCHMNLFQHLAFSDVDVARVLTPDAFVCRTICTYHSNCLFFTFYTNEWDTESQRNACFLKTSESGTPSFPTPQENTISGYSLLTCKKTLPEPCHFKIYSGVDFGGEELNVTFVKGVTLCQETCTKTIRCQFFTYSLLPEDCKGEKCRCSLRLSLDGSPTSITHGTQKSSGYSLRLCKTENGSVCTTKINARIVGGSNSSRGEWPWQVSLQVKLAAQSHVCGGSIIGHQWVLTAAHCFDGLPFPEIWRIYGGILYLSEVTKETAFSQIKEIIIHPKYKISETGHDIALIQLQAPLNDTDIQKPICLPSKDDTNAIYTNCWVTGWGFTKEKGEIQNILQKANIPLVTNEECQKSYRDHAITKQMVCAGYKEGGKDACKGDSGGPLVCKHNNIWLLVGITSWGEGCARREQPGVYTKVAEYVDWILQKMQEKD

[7] = target: rat plasma kallikrein (rat, UniProt P14272 20-638, limits assumed); assay: cell-based or functional assay
Sequence of rat plasma kallikrein (P14272 20-638 limits assumed): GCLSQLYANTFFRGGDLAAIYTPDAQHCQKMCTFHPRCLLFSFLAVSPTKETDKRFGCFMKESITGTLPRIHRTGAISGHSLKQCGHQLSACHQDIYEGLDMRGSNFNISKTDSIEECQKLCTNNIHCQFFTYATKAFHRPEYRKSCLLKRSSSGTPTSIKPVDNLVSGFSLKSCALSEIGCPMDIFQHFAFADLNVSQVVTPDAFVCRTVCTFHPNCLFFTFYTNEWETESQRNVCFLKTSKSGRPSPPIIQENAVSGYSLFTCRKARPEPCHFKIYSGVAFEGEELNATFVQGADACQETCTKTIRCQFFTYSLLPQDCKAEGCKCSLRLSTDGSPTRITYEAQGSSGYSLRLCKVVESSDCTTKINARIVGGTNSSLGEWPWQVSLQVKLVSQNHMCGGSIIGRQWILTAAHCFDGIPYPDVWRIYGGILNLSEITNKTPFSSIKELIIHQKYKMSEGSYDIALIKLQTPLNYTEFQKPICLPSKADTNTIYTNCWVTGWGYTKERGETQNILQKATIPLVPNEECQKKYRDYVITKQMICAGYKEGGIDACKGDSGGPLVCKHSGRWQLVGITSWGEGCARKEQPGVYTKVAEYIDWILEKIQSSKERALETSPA

[8] = target: T1, human plasma kallikrein; assay: cell-based or functional assay; remark: listed apart in the source
[9] = target: T1, human plasma kallikrein; assay: cell-based or functional assay; remark: listed apart in the source
[10] = target: T1, human plasma kallikrein; assay: SPR, pH 6.0, 37° C.; pH 6.0, 37° C.
[11] = target: T1, human plasma kallikrein; assay: SPR, 37° C.; reference: human prekallikrein
[12] = target: T2, human FcRn (Sino Biological, Cat. No. CT009-H08H) (human, UniProt P55899 24-297; P61769 21-119); assay: SPR, Biacore T200, human FcRn on the chip, pH 6.0
T2 construct: Coupled to the Biacore chip; also called hFcRn
T2 sequence (P55899 24-297 limits assumed, chain 1 of 2): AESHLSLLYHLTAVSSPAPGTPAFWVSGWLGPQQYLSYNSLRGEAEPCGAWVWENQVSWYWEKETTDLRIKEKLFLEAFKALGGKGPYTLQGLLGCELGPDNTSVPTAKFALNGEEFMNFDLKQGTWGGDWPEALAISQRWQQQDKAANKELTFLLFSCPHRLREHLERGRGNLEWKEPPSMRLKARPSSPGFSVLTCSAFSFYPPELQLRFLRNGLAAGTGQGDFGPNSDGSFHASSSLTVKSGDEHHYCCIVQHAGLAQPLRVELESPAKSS
T2 sequence (P61769 21-119 limits assumed, chain 2 of 2): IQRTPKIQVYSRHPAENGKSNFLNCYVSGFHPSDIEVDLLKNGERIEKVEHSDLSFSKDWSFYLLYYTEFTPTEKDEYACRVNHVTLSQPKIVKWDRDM

[13] = target: T1, human plasma kallikrein; assay: SPR, 37 C, 50 mM HEPES, 150 mM NaCl, 0.1 mM Ca++, 1 mg/ml BSA, 0.02% tween-20, pH 6.0
[14] = target: T3, human prekallikrein (human, UniProt P03952 20-638); assay: as above
T3 construct: Zymogen form
T3 sequence (P03952 20-638 limits assumed): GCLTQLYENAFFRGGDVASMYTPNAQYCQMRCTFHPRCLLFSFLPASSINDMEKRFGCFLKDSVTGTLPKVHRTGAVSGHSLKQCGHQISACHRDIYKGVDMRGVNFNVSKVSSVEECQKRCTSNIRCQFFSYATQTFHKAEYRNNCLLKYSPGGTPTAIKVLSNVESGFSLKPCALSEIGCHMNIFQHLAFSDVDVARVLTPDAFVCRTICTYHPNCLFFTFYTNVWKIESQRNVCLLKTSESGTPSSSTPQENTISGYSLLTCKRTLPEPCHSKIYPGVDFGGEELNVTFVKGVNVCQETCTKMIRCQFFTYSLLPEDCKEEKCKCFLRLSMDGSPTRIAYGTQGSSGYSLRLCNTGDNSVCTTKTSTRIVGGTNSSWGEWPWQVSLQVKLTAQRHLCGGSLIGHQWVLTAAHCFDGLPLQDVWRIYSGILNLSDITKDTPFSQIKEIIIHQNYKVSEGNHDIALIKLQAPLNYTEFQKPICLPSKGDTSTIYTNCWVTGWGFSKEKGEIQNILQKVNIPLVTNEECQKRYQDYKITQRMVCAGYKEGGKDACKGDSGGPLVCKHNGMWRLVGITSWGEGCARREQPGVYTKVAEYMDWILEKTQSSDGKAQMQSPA

[15] = target: T3, human prekallikrein; assay: SPR, 37 C, 50 mM HEPES, 150 mM NaCl, 1.3 mM Ca++, 1 mg/ml BSA, 0.02% tween-20, pH 7.4
[16] = target: T2, human FcRn (Sino Biological, Cat. No. …); assay: SPR, Biacore T200, human FcRn on the chip, pH 6.0; pH 6.0; hFcRn on the chip
[17] = target: T1, human plasma kallikrein; assay: SPR, pH 7.4, 37° C.; pH 7.4, 37° C.
[18] = target: T2, human FcRn (Sino Biological, Cat. No. …)
[19] = target: T3, human prekallikrein; assay: SPR, 37 C, 50 mM HEPES, 150 mM NaCl, 0.1 mM Ca++, 1 mg/ml BSA, 0.02% tween-20, pH 6.0 (this table has no pH labels; lower row taken as pH 6.0 as in the labelled table beside it)
[20] = target: T3, human prekallikrein; assay: SPR, 37 C, 50 mM HEPES, 150 mM NaCl, 1.3 mM Ca++, 1 mg/ml BSA, 0.02% tween-20, pH 7.4 (this table has no pH labels; upper row taken as pH 7.4 as in the labelled table beside it)
[21] = target: T1, human plasma kallikrein; assay: SPR, 37 C, 50 mM HEPES, 150 mM NaCl, 0.1 mM Ca++, 1 mg/ml BSA, 0.02% tween-20, pH 6.0 (this table has no pH labels; lower row taken as pH 6.0 as in the labelled tables beside it)
[22] = target: T1, human plasma kallikrein; assay: SPR, 37 C, 50 mM HEPES, 150 mM NaCl, 1.3 mM Ca++, 1 mg/ml BSA, 0.02% tween-20, pH 7.4 (this table has no pH labels; upper row taken as pH 7.4 as in the labelled tables beside it)
[23] = target: T1, human plasma kallikrein; assay: SPR, pH 6.0, 37° C.
[24] = target: trypsin, human pancrease (Cat #16-19-032000, Athens Research and Technology Inc) (human); assay: cell-based or functional assay
[25] = target: T1, human plasma kallikrein; assay: SPR, 37° C., pH 6 against pH 7.4

Binder	IC50 (read off the curve) [1] [nM]	IC50 (read off the curve), lower panel, 10 nM pKal [2] [M]	Kd [4] [nM]	koff [4] [s⁻¹]	kon [4] [M⁻¹ s⁻¹]	IC50 (read off the curve), lower panel [9] [nM]	Kd [10] [nM]	fold higher affinity for plasma kallikrein than prekallikrein [11] [fold]	Kd [12] [nM]	koff [12] [s⁻¹]	kon [12] [M⁻¹ s⁻¹]	koff [13] [s⁻¹]	kon [13] [M⁻¹ s⁻¹]	Kd [15] [nM]	koff [15] [s⁻¹]	kon [15] [M⁻¹ s⁻¹]	also measured
B1	~1	~8e-09	–	–	–	–	–	–	–	–	–	–	–	–	–	–	IC50 (read off the curve), upper panel, 1 nM pKal [2]: ~1e-09 M
B2	–	–	1.1	7.3e-05	69000	~20	0.9	> 1000	150	0.0277	184000	7.7e-05	86000	1300	0.025	19000	fold higher potency than DX-2930, HMWK functional assay [3]: ~10 fold; IC50, inhibition of pKal (1 nM) enzymatic activity on PFR-AMC [5]: 223 pM; IC50, inhibition of pKal (1 nM) enzymatic activity on PFR-AMC [6]: 352 pM; IC50, inhibition of pKal (1 nM) enzymatic activity on PFR-AMC [7]: 167 pM; IC50, inhibition of pKal (1 nM) enzymatic activity on PFR-AMC [8]: 290 pM; IC50 (read off the curve), upper panel, 30 nM pKal, 600 nM HMWK [9]: ~20 nM; Kd [14]: 670 nM; koff [14]: 0.022 s⁻¹; kon [14]: 34000 M⁻¹ s⁻¹
B3	–	–	–	–	–	~20	–	–	–	–	–	–	–	–	–	–	Kd [16]: 848 nM; koff [16]: 0.229 s⁻¹; kon [16]: 270000 M⁻¹ s⁻¹
B4	–	–	–	–	–	~20	1.2	> 1000	–	–	–	–	–	–	–	–	Kd [17]: 2.2 nM; Kd [18]: 105 nM; koff [18]: 0.031 s⁻¹; kon [18]: 296000 M⁻¹ s⁻¹; Kd [19]: 670 nM; koff [19]: 0.023 s⁻¹; kon [19]: 34000 M⁻¹ s⁻¹; Kd [20]: 1300 nM; koff [20]: 0.024 s⁻¹; kon [20]: 19000 M⁻¹ s⁻¹; koff [21]: 0.000101 s⁻¹; kon [21]: 83000 M⁻¹ s⁻¹; koff [22]: 8.6e-05 s⁻¹; kon [22]: 39000 M⁻¹ s⁻¹
B5	~0.2	~3e-09	18	0.00056	31000	~30	–	> 1000	193	0.167	866000	0.0061	26000	144000	0.05	600	Kd [23]: 236 nM; IC50, trypsin inhibition assay (0.25 nM trypsin, PFR-AMC), Data 1 [24]: 243 nM; IC50, trypsin inhibition assay (0.25 nM trypsin, PFR-AMC), Data 2 [24]: 376 nM; fold reduction in KD at pH 6 versus pH 7.4 [25]: > 10 fold
